# Reference: article PMC7176432, “Single-molecule functional anatomy of endogenous HER2-HER3 heterodimers” (eLife, 2020)
# System: T1, Nc1ncnc2c1ncn2[C@@H]1O[C@H](COP(=O)(O)OP(=O)(O)OP(=O)(O)O)[C@@H](O)[C@H]1O
# T1 construct: entire endogenous HER2, ligand-free HER2 complexes immunoprecipitated from SKBR3 cells
# Assay: Michaelis-Menten titration of ATP, single-molecule pTyr1196 immunolabeling (KM)
# Assay type: biochemical, Homo sapiens
# Details: Mg2+
substance,measurement,value
HER2 (Homo sapiens),Km,16.46 µM
